Measurements reported in patent US20200277375A1 (ULTRAHUMAN FOUR, published 2020).
Blank lines part the entries; values can stand above or below the binder they belong to.

Tests used:
mouse CD47-Fc [1] = target: T1, mouse CD47-Fc (mouse, UniProt Q61735 19-140, limits assumed); experiment: direct specificity ELISA, IgG 1 µg/ml, FIG. 5A
T1 construct: Recombinant CD47-Fc; also called mCD47-Fc; mCD37-Fc [sic]; not shown: Fc part
T1 sequence (looked up): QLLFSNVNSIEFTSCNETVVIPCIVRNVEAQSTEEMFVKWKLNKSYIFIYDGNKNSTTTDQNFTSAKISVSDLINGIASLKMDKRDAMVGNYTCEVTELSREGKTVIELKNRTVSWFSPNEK
Text: (§1) FIG. 5A-FIG. 5G. Binding specificity analyses for prioritized lead clones. Off-target homologue binding risk for mVH/mVL in IgG1 (FIG. 5A) and IgG1null (FIG. 5B) format and library-derived leads A-D5 (FIG. 5C), VH-A1/VL-B1 (FIG. 5D), F-E7 (FIG. 5E), D-H3 (FIG. 5F), and G-B6 (FIG. 5G) in IgG1null format was examined by direct ELISA on CD47-Fc orthologs and a panel of 14 human immunoglobulin superfamily proteins as labelled on each X-axis (“B” refers to blank). Binding to human, cyno and murine CD47-Fcs (h/c/mCD47-Fc) was performed at an IgG concentration of 1 μg/ml. Binding to all other proteins was performed at an IgG concentration of 10 μg/ml.
(§2) To ensure that that lead clones had not suffered from loss of target specificity during the mutation and reselection process; lead and control IgG1 clones were tested for binding to a panel of 14 purified human proteins from the immunoglobulin superfamily (FIG. 5).

human CD47-Fc [2] = target: T2, human CD47-Fc (human, UniProt Q08722 19-139); experiment: direct specificity ELISA, IgG 1 µg/ml, FIG. 5
T2 construct: Recombinant CD47-Fc; also called hCD47-Fc; not shown: Fc part
Text: as §1, §2

[3] = target: T3, cynomolgus monkey CD47-Fc (cynomolgus monkey, UniProt A0A2K5X523 19-139); experiment: direct specificity ELISA, IgG 1 µg/ml, FIG. 5
T3 construct: Recombinant CD47-Fc; also called cyno CD47-Fc; cCD47-Fc; not shown: Fc part
Text: as §1, §2

mouse CD47-Fc [4] = target: T1, mouse CD47-Fc; experiment: direct titration ELISA on coated CD47-Fc, FIG. 3
Procedure: FIG. 3A-FIG. 3H. Direct titration ELISA for IgG binding to human, mouse and cyno CD47-Fc proteins. Chimeric anti-CD47 (mVH/mVL), library-derived clones in human IgG1 null format were titrated (in μg/ml) in a direct binding ELISA against human, mouse and cyno CD47-Fc proteins (FIG. 3A-FIG. 3H). […] Clone TTP lost almost all binding function.
(§3) To coat Greiner Bio-One High bind ELISA plates, target proteins were diluted to 1 μg/ml in carbonate buffer and added at 100 μl per well, at 4° C., o/n. Coated plates were washed 3× with PBS pH7.4, blocked with 1% BSA in PBS (380 μl/well) for 1 hr at RT, then washed 3× with PBS-Tween 20 (PBST). CD47 antibodies (100 μl/well; diluted in PBST) were then added and then incubated 1 hr at RT. Plates were then washed 3× with PBST and goat anti-human kappa chain-HRP added (100 μl/well) at RT, for 1 hr. Plates were then washed 3× with PBST and twice with PBS before the addition of 100 μl TMB per well. Reactions were stopped by adding 100 μl 2M H₂SO₄/well and OD was read on a plate reader at 450 nm.

[5] = target: T4, cynomolgus monkey CD47 on transfected CHO-K1 cells (cynomolgus monkey, UniProt A0A5F8AK49 19-323 (rhesus entry)); experiment: flow cytometry, cyno CD47-transfected CHO-K1, FIG. 6
T4 construct: whole, on cells; also called cyno CD47+ cells
Procedure: (§4) FIG. 6A-FIG. 6C. Flow cytometric binding to human and cyno CD47+CHO-K1 cells. Commercial anti-CD47 antibody MS1991, human IgG1 (“I IgG1”) and IgG4 (“I IgG4”) Isotype controls, lead library-derived IgGs in both IgG1null (“IgG1N”) and IgG4(S228P) formats were examined for specific binding on cyno-transfected CHO-K1 cells (FIG. 6A), human-transfected CHO-K1 cells (FIG. 6B), and wild type (wt, i.e. untransfected) CHO-K1 cells (FIG. 6C). IgGs were tested at concentrations ranging from 24-100,000 ng/ml. Concentration-dependent binding was observed against both human and cyno cell lines for all CD47-specific antibodies but not Isotype controls.
(§5) Antibodies to CD47 were analysed for concentration-dependent binding at the cell surface via flow cytometry. CHO-K1 cells were stably transfected with either human, mouse or cyno CD47 full-length cDNAs. Anti-CD47 IgGs mVH/mVL, VH-A1/VL-B1, A-D5, G-B6, F-E7 and D-H3, and an isotype control IgG1 were then all tested in IgG1null and IgG4(S228P) formats, alongside a commercial mouse anti-human CD47 monoclonal MS1991, over a concentration range of 100,000-24 ng/ml for binding to human, cyno or wild type control (‘wt’, i.e. untransfected) CHO-K1.

[6] = target: T5, human CD47 on cells (human CD47-transfected CHO-K1; HL60) (human, UniProt Q08722 19-323); experiment: flow cytometry, human CD47-transfected CHO-K1, FIG. 6
T5 construct: whole, on cells; also called human CD47+ cells; human CD47+HL60 cells
Procedure: as §4, §5

human CD47-Fc [7] = target: T2, human CD47-Fc; experiment: direct specificity ELISA, IgG 10 µg/ml, FIG. 13
mouse CD47-Fc [8] = target: T1, mouse CD47-Fc; experiment: direct specificity ELISA, IgG 10 µg/ml, FIG. 13
[9] = target: T3, cynomolgus monkey CD47-Fc; experiment: direct specificity ELISA, IgG 10 µg/ml, FIG. 13
human CD47-Fc [10] = target: T2, human CD47-Fc; experiment: direct titration ELISA (FIG. 11) or CD47-SIRPα competition ELISA (FIG. 12)
Procedure: as §3
(§6) A competition ELISA assay was established to examine the capacity of optimized leads to block the binding interaction of CD47 with SIRPα. To coat Greiner Bio-One High bind ELISA plates, 10 μg/ml human SIRPα-Fc in carbonate coating buffer was added at 100 μl per well, at 4° C., o/n. Coated plates were washed 3× with PBS pH7.4, blocked with 1% BSA in PBS (380 μl/well) for 1 hr at RT, then washed 3× with PBS-Tween 20 (PBST). Biotinylated human, mouse or cyno CD47-Fc was then added at 0.2 μg/ml in PBS, 100 μl per well, at room temperature for 60 minutes with or without the addition of competing IgGs. Plates were then washed 3× with PBST and Streptavidin-HRP added (100 μl/well) at room temperature, for 1 hr. Plates were then washed 3× with PBST and twice with PBS before the addition of 100 μl TMB per well. Reactions were stopped by adding 100 μl 2M H₂SO₄/well and OD was read on a plate reader at 450 nm.

mouse CD47-Fc [11] = target: T1, mouse CD47-Fc; experiment: as above
Procedure: as §3, §6

[12] = target: T3, cynomolgus monkey CD47-Fc; experiment: as above
Procedure: as §3, §6

human CD47-Fc [13] = target: T2, human CD47-Fc; experiment: direct titration ELISA, FIG. 18A
Procedure: (§7) FIG. 18A-FIG. 18C. Direct titration ELISA for A-D5.16 and A-D5.16-DI designer IgGs binding to human, mouse and cyno CD47-Fc proteins. Chimeric anti-CD47 (mVH/mVL), designer A-D5.16 and A-D5.16-DI clones in human IgG1null format were titrated (in μg/ml) in a direct binding ELISA against human (FIG. 18A), cyno (FIG. 18B) and mouse (FIG. 18C) CD47-Fc proteins.
as §3

mouse CD47-Fc [14] = target: T1, mouse CD47-Fc; experiment: direct titration ELISA, FIG. 18C
Procedure: as §7, §3

B2: VH-A1/VL-B1 in human IgG1null format (antibody, V domains shown)
VH: EVQLVQSGAEVKKPGESLKISCKGSGYSFTNYYIFWVRQMPGKGLEWMGIINPVDGDTRYSPSFQGQVTISADKSISTAYLQWSSLKASDTAMYYCARGGFTMDYWGQGTLVTVSS
VL: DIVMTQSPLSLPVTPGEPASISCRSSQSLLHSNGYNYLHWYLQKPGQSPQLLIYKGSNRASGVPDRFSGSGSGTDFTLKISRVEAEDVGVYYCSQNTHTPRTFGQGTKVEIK
notes: Combines the two most humanized observed v-domains; IgG1null (L234A/L235A/G237A), kappa; also called VH-A1/VI-B1
OD450 nm (human CD47-Fc [2]): > 2 OD450 nm
OD450 nm [3]: > 2 OD450 nm
binding result (mouse CD47-Fc [4]): no binding
maximum MFI, fold over untransfected CHO-K1 [5]: > 10 fold
maximum MFI, fold over untransfected CHO-K1 [6]: > 10 fold

B4: A-D5.16-DI in human IgG1null format (antibody, V domains shown)
VH: EVQLVQSGAEVKKPGESLKISCKGSGYSFTNYYIFWVRQMPGKGLEWMGIINPVDGDTRYSPSFQGQVTISADKSISTAYLQWSSLKASDTAMYYCARGGYTMDRWGQGTLVTVSS
VL: DIVMTQSPLSLPVTPGEPASISCRSSQSLLHSAGYNYLHWYLQKPGQSPQLLIYKVSNRFSGVPDRFSGSGSGTDFTLKISRVEAEDAGVYYCFQNTHTPRTFGQGTKVEIK
notes: Deimmunised light chain paired with the A-D5.16 VH; IgG1null
binding result (human CD47-Fc [13]): binds
binding result (mouse CD47-Fc [14]): binds

Next, values leading:

binding result (mouse CD47-Fc [1]): binds
B1: mVH/mVL (chimeric VxP037) in human IgG1 format (antibody, V domains shown)
VH: EVQLQQFGAELVKPGASMKLSCKASGYTFTNYYVFWVKQRPGQGLEWIGDINPVNGDTNFNEKFKNKATLTVDKSSTTTYLQLSSLTSEDSAVYYCTRGGYTMDYWGQGTLVTVSS
VL: DVVMTQTPLSLSVSLGDQASISCRSSQSLVHSNGNTYLHWYLQKPGQSPKLLIYKVSYRFSGVPDRFSGSGSGTDFTLKISRVEAEDLGVYFCSQNTHVPRTFGQGTKVEIK
notes: also called mVH/mVL in IgG1

OD450 nm (human CD47-Fc [7]): > 2 OD450 nm
OD450 nm (mouse CD47-Fc [8]): > 2 OD450 nm
OD450 nm [9]: > 2 OD450 nm
fold reduction in potency versus A-D5 and mVL/mVH (human CD47-Fc [10]): ~3 fold
fold reduction in potency versus A-D5 and mVL/mVH (mouse CD47-Fc [11]): ~3 fold
fold reduction in potency versus A-D5 and mVL/mVH [12]: ~3 fold
B3: A-D5.16 in human IgG1null format (antibody, V domains shown)
VH: EVQLVQSGAEVKKPGESLKISCKGSGYSFTNYYIFWVRQMPGKGLEWMGIINPVDGDTRYSPSFQGQVTISADKSISTAYLQWSSLKASDTAMYYCARGGYTMDRWGQGTLVTVSS
VL: DIVMTQSPLSLPVTPGEPASISCRSSQSLLHSAGYNYLHWYLQKPGQSPQLLIYKVSNRLSGVPDRFSGSGSGTDFTLKISRVEAEDVGVYYCFQNTHTPRTFGQGTKVEIK
notes: Designer clone from A-D5.4; IgG1null; also called A-D.16
